Source: publication PMC4731781, “The β2 clamp in the Mycobacterium tuberculosis DNA polymerase III αβ2ε replicase promotes polymerization and reduces exonuclease activity” (Scientific Reports, 2016)
Read-outs that look alike come from different tables or passages of the source.

Legend:
[1] = target: beta2 clamp (Escherichia coli) (UniProt P0A988); details: cited from earlier work
[2] = target: beta2 clamp (Escherichia coli) (UniProt P0A988); details: cited from earlier work; remark: listed apart in the source
[3] = target: T1, Mtb DNA Pol III α subunit (DnaE1), purified recombinant (Mycobacterium tuberculosis, UniProt P9WNT7 1-1184); assay: SPR; BIAcore3000, β subunit amine-coupled to the chip (about 1800 RU); α injected at 0.01, 0.1 and 1 μM in 50 mM HEPES pH 7.5, 100 mM NaCl, 0.005% Tween20, 30 μl/min; global fit to a 1:1 Langmuir model; details: both partners purified
T1 construct: also called Mtb α; MtbDnaE1; source: E. coli, purified
T1 sequence: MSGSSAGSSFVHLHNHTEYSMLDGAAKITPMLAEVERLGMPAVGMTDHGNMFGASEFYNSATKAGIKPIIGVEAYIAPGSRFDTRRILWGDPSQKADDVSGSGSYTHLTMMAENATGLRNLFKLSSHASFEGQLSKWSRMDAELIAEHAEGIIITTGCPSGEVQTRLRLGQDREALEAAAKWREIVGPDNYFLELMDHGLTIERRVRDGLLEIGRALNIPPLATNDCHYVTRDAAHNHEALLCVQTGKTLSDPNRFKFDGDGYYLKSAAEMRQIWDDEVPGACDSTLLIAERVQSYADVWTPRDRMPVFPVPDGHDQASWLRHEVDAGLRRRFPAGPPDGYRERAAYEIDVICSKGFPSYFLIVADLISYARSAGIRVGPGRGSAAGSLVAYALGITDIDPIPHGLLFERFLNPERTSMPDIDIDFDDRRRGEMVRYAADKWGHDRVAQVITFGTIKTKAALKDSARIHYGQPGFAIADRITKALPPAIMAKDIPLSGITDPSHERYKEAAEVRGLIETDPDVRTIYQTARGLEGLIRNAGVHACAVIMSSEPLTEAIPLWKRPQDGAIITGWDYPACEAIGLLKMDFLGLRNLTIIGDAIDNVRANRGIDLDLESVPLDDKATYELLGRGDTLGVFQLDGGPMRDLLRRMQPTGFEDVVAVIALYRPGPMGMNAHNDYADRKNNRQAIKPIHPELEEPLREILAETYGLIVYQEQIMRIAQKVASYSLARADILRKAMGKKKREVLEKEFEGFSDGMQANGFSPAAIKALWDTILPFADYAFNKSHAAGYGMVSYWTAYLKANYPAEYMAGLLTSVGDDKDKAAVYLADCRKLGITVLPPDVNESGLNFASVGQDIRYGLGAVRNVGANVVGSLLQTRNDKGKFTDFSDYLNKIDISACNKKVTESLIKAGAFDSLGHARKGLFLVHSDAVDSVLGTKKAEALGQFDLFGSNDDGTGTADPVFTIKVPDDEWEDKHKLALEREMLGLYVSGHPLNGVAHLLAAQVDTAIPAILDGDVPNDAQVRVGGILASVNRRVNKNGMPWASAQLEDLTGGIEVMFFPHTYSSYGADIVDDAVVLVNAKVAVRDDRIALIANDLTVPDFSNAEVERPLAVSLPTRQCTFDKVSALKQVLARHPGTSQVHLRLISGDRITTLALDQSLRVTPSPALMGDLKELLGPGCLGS

[4] = target: T2, Mtb DNA Pol III δ subunit (HolA) (Mycobacterium tuberculosis, UniProt P71730 1-322); assay: co-purification, densitometry of an SDS-PAGE gel; details: partners not purified
T2 sequence: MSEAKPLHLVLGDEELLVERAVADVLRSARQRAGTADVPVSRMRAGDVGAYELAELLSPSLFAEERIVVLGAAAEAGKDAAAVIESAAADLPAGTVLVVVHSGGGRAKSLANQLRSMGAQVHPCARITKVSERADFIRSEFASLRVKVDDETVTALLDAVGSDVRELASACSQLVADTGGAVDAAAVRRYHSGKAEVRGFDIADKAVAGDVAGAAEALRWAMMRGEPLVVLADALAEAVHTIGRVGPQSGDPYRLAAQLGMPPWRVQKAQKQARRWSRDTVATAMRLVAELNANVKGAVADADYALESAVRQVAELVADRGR

[5] = target: T3, Mtb DNA Pol III δ’ subunit (HolB) (Mycobacterium tuberculosis, UniProt Q7D554 1-404); assay: co-purification, densitometry of an SDS-PAGE gel; details: partners not purified
T3 sequence: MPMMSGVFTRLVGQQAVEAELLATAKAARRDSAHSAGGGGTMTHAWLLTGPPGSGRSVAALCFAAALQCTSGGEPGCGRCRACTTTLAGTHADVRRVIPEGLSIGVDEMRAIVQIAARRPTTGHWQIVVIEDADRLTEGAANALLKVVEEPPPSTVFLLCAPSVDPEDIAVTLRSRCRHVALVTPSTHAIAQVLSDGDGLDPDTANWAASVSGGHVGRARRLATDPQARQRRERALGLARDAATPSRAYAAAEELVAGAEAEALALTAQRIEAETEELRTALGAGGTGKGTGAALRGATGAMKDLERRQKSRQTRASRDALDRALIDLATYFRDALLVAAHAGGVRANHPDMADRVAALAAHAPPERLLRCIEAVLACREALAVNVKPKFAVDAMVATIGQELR

Sequence of beta2 clamp (Escherichia coli) (P0A988 whole entry): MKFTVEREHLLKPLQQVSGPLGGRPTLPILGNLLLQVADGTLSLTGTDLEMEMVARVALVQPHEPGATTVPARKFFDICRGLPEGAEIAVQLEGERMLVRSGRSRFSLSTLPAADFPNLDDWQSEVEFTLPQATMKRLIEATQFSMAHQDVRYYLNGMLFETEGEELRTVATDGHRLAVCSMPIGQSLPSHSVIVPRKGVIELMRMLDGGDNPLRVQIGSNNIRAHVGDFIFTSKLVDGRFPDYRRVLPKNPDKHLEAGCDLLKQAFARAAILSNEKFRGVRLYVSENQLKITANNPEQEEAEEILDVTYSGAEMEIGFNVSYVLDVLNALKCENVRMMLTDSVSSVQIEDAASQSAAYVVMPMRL

For “DNA polymerase III alpha (from UniProt P10443)”, the Kd [1] is listed as 1200 nM.

For “DNA polymerase III epsilon (from UniProt P03007)”, the Kd [2] is given as 200000 nM.

B1: Mtb DNA Pol III β2 clamp (DnaN), purified recombinant (natural protein)
chain: MDAATTRVGLTDLTFRLLRESFADAVSWVAKNLPARPAVPVLSGVLLTGSDNGLTISGFDYEVSAEAQVGAEIVSPGSVLVSGRLLSDITRALPNKPVDVHVEGNRVALTCGNARFSLPTMPVEDYPTLPTLPEETGLLPAELFAEAISQVAIAAGRDDTLPMLTGIRVEILGETVVLAATDRFRLAVRELKWSASSPDIEAAVLVPAKTLAEAAKAGIGGSDVRLSLGTGPGVGKDGLLGISGNGKRSTTRLLDAEFPKFRQLLPTEHTAVATMDVAELIEAIKLVALVADRGAQVRMEFADGSVRLSAGADDVGRAEEDLVVDYAGEPLTIAFNPTYLTDGLSSLRSERVSFGFTTAGKPALLRPVSGDDRPVAGLNGNGPFPAVSTDYVYLLMPVRLPG
notes: DNA polymerase III β subunit (sliding clamp) DnaN of Mycobacterium tuberculosis; also called β subunit; β clamp
With B1 the Kd [3] was 10.9 nM.

B2: Mtb DNA Pol III τ subunit (DnaZX) (natural protein)
chain: MALYRKYRPASFAEVVGQEHVTAPLSVALDAGRINHAYLFSGPRGCGKTSSARILARSLNCAQGPTANPCGVCESCVSLAPNAPGSIDVVELDAASHGGVDDTRELRDRAFYAPVQSRYRVFIVDEAHMVTTAGFNALLKIVEEPPEHLIFIFATTEPEKVLPTIRSRTHHYPFRLLPPRTMRALLARICEQEGVVVDDAVYPLVIRAGGGSPRDTLSVLDQLLAGAADTHVTYTRALGLLGVTDVALIDDAVDALAACDAAALFGAIESVIDGGHDPRRFATDLLERFRDLIVLQSVPDAASRGVVDAPEDALDRMREQAARIGRATLTRYAEVVQAGLGEMRGATAPRLLLEVVCARLLLPSASDAESALLQRVERIETRLDMSIPAPQAVPRPSAAAAEPKHQPAREPRPVLAPTPASSEPTVAAVRSMWPTVRDKVRLRSRTTEVMLAGATVRALEDNTLVLTHESAPLARRLSEQRNADVLAEALKDALGVNWRVRCETGEPAAAASPVGGGANVATAKAVNPAPTANSTQRDEEEHMLAEAGRGDPSPRRDPEEVALELLQNELGARRIDNA
notes: Three copies in the clamp loader τ3δδ’ by densitometry
For B2, the “stoichiometry N” value [4] was 3 τ per δ and the “stoichiometry N” value [5] was 3 τ per δ’.
